Source: the DeepSol protein solubility set

Assay: soluble on expression in E. coli; label from the status in PepcDB or PDB records

Sequence: MRKISYRFVYNRKKSLNDRGTALVQVEAYLNKKKVYFSTHVYLRPEQWDVKRKIIKDHPNQDALNGMLNEFIIELEKKELSLWRQGKTITLSLIKEEFKSNTDASFLGFARKEIMSSQLKDSTKRNHLTTISLLQSFKPTIEFEDLTYNFVTDFEKNLYESGYQTNTVAKHMKHLKSFVNAAINKGYIDPNNYAFRRYKIKMKEGKHVFLLPEEMKKLEEVSLTGRNSCLEHTLDAFLFCCYTGLRYSDFVNLNEKNIVKMDGKLWLIFDSVKTGTEVKLPLNLLFEGKALTLLQKYQGKWSSFFSIK
- soluble on expression in E. coli: not soluble

Sequence: MKSRIVYGPILSRRLGRSLGIDVIKNTGSKKNCNYDCIYCQLGHVELKLGSPEDVKEAVTPKEVSESFEKFYKDVEGLDYITFSGTCEPSLNLSLGEMIQSIREISGVPVCVITNSSLMGREDVRKNLSQADLVVATLVSGIEKTWRKIHRPAPCINFQEIIEGLRELAKAGDGKKLALEVMFLESETGEPLNSTDEEVDCLIKTIRYICPDEIEVLTISRPPAEKWVKPVSEERLREIADRFISEFGAEKVRLVLKGKKKKAKVLHRDLEEEVYALLLRRPCTFEQTWQGLSIDPESLRPVLEKLLAEGKIEEIGSKNSVYYRAK
- soluble on expression in E. coli: not soluble

Sequence: MSLLDFEKPLFEIRNKIESLKESQDKNDVDLQEEIDMLEASLERETKKIYTNLKPWDRVQIARLQERPTTLDYIPYIFDSFMELHGDRNFRDDPAMIGGIGFLNGRAVTVIGQQRGKDTKDNIYRNFGMAHPEGYRKALRLMKQAEKFNRPIFTFIDTKGAYPGKAAEERGQSESIATNLIEMASLKVPVIAIVIGEGGSGGALGIGIANKVLMLENSTYSVISPEGAAALLWKDSNLAKIAAETMKITAHDIKQLGIIDDVISEPLGGAHKDVEQQALAIKSAFVAQLDSLESLSRDEIANDRFEKFRNIGSYIEEGHHHHHH
- soluble on expression in E. coli: not soluble

Sequence: MGSDKIHHHHHHMSISLATISGRVHAGERISDEEALFLFESRDPLAVGELAAAVNRRRNGDRVFFNVNRHINHTNICVNRCSFCAFYRAADEPGAYLYDLEEIRNRAAEAHAQGATEIHIVGGLHPDLPFDFYLAMLRTVKEVSPDLHVKAFTAVEIEYLSRLAGLSTAETLTVLKEAGLGSLPGGGAEIFAPAVRNRLCPEKISGDKWLAIMEEVHRAGLKSNATMLYGHIESYADRVDHMRRLRELQDRTGGFQVFIPLAFQKDNNPLGHLKRPGPGGVDALLTLAVARIYLDNFANIKAYWVMLGVKIAQTSLAFGVNDLDGTVVEEKIGHDAGAASPQTMGRDEIVSLIRTAGRVPVERDTLYNELRVY
- soluble on expression in E. coli: not soluble

Sequence: MAHHHHHHMFLRVPLFVAHLRLLPRQRIYMGAHCGGNIWANGRSVSVHFMVGWCYTMSRDVAEASVSFKPLRRLAHTPYSKERDEEFSSIGMGHEDMMVGHVLLDEVKYQPLIHVKVLPCHFLEARSDTGESQVVPTSMCVHHIREDDYAALMARFGNDTSPVARLWRVSEDVIYPSCD
- soluble on expression in E. coli: not soluble

Sequence: MKQRHGNSLLTTDTKCISCRLGVPLSPQRRFQAIRIEEVKLRWFAFLIVLLAGCSSKHDYTNPPWNAKVPVQRAMQWMPISQKAGAAWGVDPQLITAIIAIESGGNPNAVSKSNAIGLMQLKASTSGRDVYRRMGWSGEPTTSELKNPERNISMGAAYLNILETGPLAGIEDPKVLQYALVVSYANGAGALLRTFSSDRKKAISKINDLDADEFLDHVARNHPAPQAPRYIYKLEQALDAM
- soluble on expression in E. coli: not soluble

Sequence: IGAWGYNVGFNLYDSKTVVTKYHNESKIILKSDGTNNYYEGYEIGSIWGYVTDGYYTADDFEDTNTWKLKEGVVTVDGVSPRPGDIKYQNLRDDGSSTNRIDTGDGTFDNPGDRKIIGNNSLRLQYGINLGVNYKGFDLSVLLQGVGKRDVWISDARRWPFNSGQFGSLFKDQLDYWKPVDSANGDWTAANPNAEYFRIYGQGNNSSYNTRAQTKYLMNGSYLRVKNVTLSYNFPKSWLAPITLTSLKAFVSCENLHTFTKLMKGYDPERLSWGYPFYRTISFGFNVTL
- soluble on expression in E. coli: not soluble

Sequence: MAHHHHHHMANISPNSDGDSFVGADTAKQLSDIQKKLNDLKQRREELEEQRRRILGASDQSSSRPRSLRGPTQNRRRHSQPSQRTLPLRPPRPPISDHSIRIPNEKERQQTAQRTPYLEMKESMRRSWSRDSSLVMGSFLMEDNPRARTFTRERRFIPPPECNGIYFLGTEMELMIRNKNVAPSQRSGRRDNTPYRWNDIIDGVTPGPGAYTPLFSKVSKPSRRAQLF
- soluble on expression in E. coli: not soluble
